B1: Homeobox protein NANOG (Mus musculus), Q80Z64 (parent)
chain: MSVGLPGPHSLPSSEEASNSGNASSMPAVFHPENYSCLQGSATEMLCTEAASPRPSSEDLPLQGSPDSSTSPKQKLSSPEADKGPEEEENKVLARKQKMRTVFSQAQLCALKDRFQKQKYLSLQQMQELSSILNLSYKQVKTWFQNQRMKCKRWQKNQWLKTSNGLIQKGSAPVEYPSIHCSYPQGYLVNASGSLSMWGSQTWTNPTWSSQTWTNPTWNNQTWTNPTWSSQAWTAQSWNGQPWNAAPLHNFGEDFLQPYVQLQQNFSASDLEVNLEATRESHAHFSTPQALELFLNYSVTPPGEI

The values that follow come from IntAct's records for PubMed 23892456.

Variants of B1 are the subject of the assay. The conditions noted are these: with sox2_mouse Sox2, P48432.
sox2_mouse Sox2, P48432, sequence (P48432 whole entry): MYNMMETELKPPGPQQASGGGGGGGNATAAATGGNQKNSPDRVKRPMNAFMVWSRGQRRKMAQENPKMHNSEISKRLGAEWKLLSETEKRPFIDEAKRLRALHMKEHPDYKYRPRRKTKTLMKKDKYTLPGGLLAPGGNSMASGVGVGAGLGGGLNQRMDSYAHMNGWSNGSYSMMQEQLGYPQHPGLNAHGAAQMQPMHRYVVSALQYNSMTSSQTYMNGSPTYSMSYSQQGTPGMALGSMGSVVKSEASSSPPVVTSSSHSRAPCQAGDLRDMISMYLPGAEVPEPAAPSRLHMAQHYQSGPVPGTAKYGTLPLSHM
As to MSVGLPGPHSLPSSEEASNSGNASSMPAVFHPENYSCLQGSATEMLCTEAASPRPSSEDLPLQGSPDSSTSPKQKLSSPEADKGPEEEENKVLARKQKMRTVFSQAQLCALKDRFQKQKYLSLQQMQELSSILNLSYKQVKTWFQNQRMKCKRWQKNQWLKTSNGLIQKGSAPVEYPSIHCSYPQGYLVNASGSLSMAGSQTATNPTASSQTATNPTANNQTATNPTASSQAATAQSANGQPANAAPLHNFGEDFLQPYVQLQQNFSASDLEVNLEATRESHAHFSTPQALELFLNYSVTPPGEI [W198A;W203A;W208A;W213A;W218A;W223A;W228A;W233A;W238A;W243A], the “effect of a mutation on the interaction” value was “disrupting interaction”.
